From paper PMC10847417, “CIP2A induces PKM2 tetramer formation and oxidative phosphorylation in non-small cell lung cancer” (Cell Discovery, 2024)

Target: the molecule itself
Assay: SEC; purified recombinant WT, S287A and S287D PKM2 expressed in bacteria; size exclusion chromatography with molecular mass standards

| Protein | stoichiometry N |
| --- | --- |
| purified recombinant S287D PKM2 expressed in bacteria (enzyme, PKM2 S287D (phospho-mimetic), recombinant; construct, tag and limits not described; source: expressed in bacteria, purified recombinant) not shown | 4 |
| purified recombinant S287A PKM2 expressed in bacteria (enzyme, PKM2 S287A, recombinant; construct, tag and limits not described; source: expressed in bacteria, purified recombinant) not shown | 2 |
